One assay concerns the target T1, human IL6R (human, UniProt P08887 20-358, limits assumed).
T1 construct: also called IL-6 receptor
T1 sequence (looked up): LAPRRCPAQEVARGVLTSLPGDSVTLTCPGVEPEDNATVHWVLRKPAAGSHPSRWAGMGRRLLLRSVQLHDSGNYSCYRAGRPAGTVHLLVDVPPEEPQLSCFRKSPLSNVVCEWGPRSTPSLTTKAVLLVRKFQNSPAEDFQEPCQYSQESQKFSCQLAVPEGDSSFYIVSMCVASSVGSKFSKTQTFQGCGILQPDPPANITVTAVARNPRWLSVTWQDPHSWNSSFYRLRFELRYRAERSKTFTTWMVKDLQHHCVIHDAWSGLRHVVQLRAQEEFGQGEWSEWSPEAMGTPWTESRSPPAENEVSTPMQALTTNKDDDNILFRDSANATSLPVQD
Kind of assay: ELISA, coated human IL6R, biotinylated anti-XTEN antibody and streptavidin-HRP. A general note: An ELISA detects its analyte on a solid surface through an enzyme-linked reagent.

A further assay addresses T2, human CD40-Fc fusion (human, UniProt P25942 21-193).
T2 construct: Coated at 100 ng/well; not shown: Fc part of the fusion
Nature of the assay: ELISA, dilution series of cleared lysate on coated human CD40-Fc; Kd from EC50 and an estimated 10 µM in the lysate.

Among the data in patent publication US20130165389A1 (AMUNIX OPERATING, published 2013) are EC50 and Kd values, retold here.

T2 sequence (P25942 21-193 limits assumed): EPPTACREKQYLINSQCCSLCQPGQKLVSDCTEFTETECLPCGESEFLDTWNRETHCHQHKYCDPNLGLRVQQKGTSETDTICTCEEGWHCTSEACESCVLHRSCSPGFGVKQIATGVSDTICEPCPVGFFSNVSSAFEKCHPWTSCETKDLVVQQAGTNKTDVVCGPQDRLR
Protocol for human CD40-Fc fusion: This second flask was grown to an OD600 of between 0.6 and 1.0 at 37° C., transferred to 26° C., and induced with 1 mM IPTG. The induction was left overnight and cell paste harvested by centrifugation the flowing morning. […] Small samples were taken from the pellet, lysed using bugbuster, and clarified using a microcentrifuge. These cleared lysates were the serially diluted by a factor of three in PBST, for using in a binding ELISA.

B1: aIL6R scFv-AE864, AC342 (scFv)
scFv: MADIQMTQSPSSLSASVGDRVTITCRASQDISSYLNWYQQKPGKAPKLLIYYTSRLHSGVPSRFSGSGSGTDFTFTISSLQPEDIATYYCQQGNTLPYTFGQGTKVEIKTGSGEGSEGEGGGEGSEGEGSGEGGEGEGSGSQVQLQESGPGLVRPSQTLSLTCTVSGYSITSDHAWSWVRQPPGRGLEWIGYISYSGITTYNPSLKSRVTMLRDTSKNQFSLRLSSVTAADTAVYYCARSLARTTAMDYWGQGSLVTVSSGSPGSPAGSPTSTEEGTSESATPESGPGTSTEPSEGSAPGSPAGSPTSTEEGTSTEPSEGSAPGTSTEPSEGSAPGTSESATPESGPGSEPATSGSETPGSEPATSGSETPGSPAGSPTSTEEGTSESATPESGPGTSTEPSEGSAPGTSTEPSEGSAPGSPAGSPTSTEEGTSTEPSEGSAPGTSTEPSEGSAPGTSESATPESGPGTSTEPSEGSAPGTSESATPESGPGSEPATSGSETPGTSTEPSEGSAPGTSTEPSEGSAPGTSESATPESGPGTSESATPESGPGSPAGSPTSTEEGTSESATPESGPGSEPATSGSETPGTSESATPESGPGTSTEPSEGSAPGTSTEPSEGSAPGTSTEPSEGSAPGTSTEPSEGSAPGTSTEPSEGSAPGTSTEPSEGSAPGSPAGSPTSTEEGTSTEPSEGSAPGTSESATPESGPGSEPATSGSETPGTSESATPESGPGSEPATSGSETPGTSESATPESGPGTSTEPSEGSAPGTSESATPESGPGSPAGSPTSTEEGSPAGSPTSTEEGSPAGSPTSTEEGTSESATPESGPGTSTEPSEGSAPGTSESATPESGPGSEPATSGSETPGTSESATPESGPGSEPATSGSETPGTSESATPESGPGTSTEPSEGSAPGSPAGSPTSTEEGTSESATPESGPGSEPATSGSETPGTSESATPESGPGSPAGSPTSTEEGSPAGSPTSTEEGTSTEPSEGSAPGTSESATPESGPGTSESATPESGPGTSESATPESGPGSEPATSGSETPGSEPATSGSETPGSPAGSPTSTEEGTSTEPSEGSAPGTSTEPSEGSAPGSEPATSGSETPGTSESATPESGPGTSTEPSEGSAPG
notes: Single-chain scFv-XTEN fusion expressed in E. coli; also called aIL6R-XTEN
For orientation: EC50 means the midpoint of the concentration-response curve. A higher EC50 goes with weaker potency. B1 displayed a concentration giving a half-maximal response (EC50) with human IL6R of 5 nM.

B2: anti-CD40-AE864, AC384 (scFv)
scFv: MAEIVLTQSPATLSLSPGERATLSCRASQSISDYLHWYQQKPGQAPRLLIYYASHSISGIPARFSGSGSGTDFTLTISSLEPEDFAVYYCQHGHSYPWTFGGGTKVEIKTGSGEGSEGEGGGEGSEGEGSGEGGEGEGSGTQVQLVQSGSELKKPGASVKVSCKASGYAFTTTGMQWVRQAPGQGLEWMGWINTHSGVPKYVEDFKGRFVFSLDTSVSTAYLQISSLKAEDTAVYYCARSGNGNYDLAYFKYWGQGTLVTVSSGGSPAGSPTSTEEGTSESATPESGPGTSTEPSEGSAPGSPAGSPTSTEEGTSTEPSEGSAPGTSTEPSEGSAPGTSESATPESGPGSEPATSGSETPGSEPATSGSETPGSPAGSPTSTEEGTSESATPESGPGTSTEPSEGSAPGTSTEPSEGSAPGSPAGSPTSTEEGTSTEPSEGSAPGTSTEPSEGSAPGTSESATPESGPGTSTEPSEGSAPGTSESATPESGPGSEPATSGSETPGTSTEPSEGSAPGTSTEPSEGSAPGTSESATPESGPGTSESATPESGPGSPAGSPTSTEEGTSESATPESGPGSEPATSGSETPGTSESATPESGPGTSTEPSEGSAPGTSTEPSEGSAPGTSTEPSEGSAPGTSTEPSEGSAPGTSTEPSEGSAPGTSTEPSEGSAPGSPAGSPTSTEEGTSTEPSEGSAPGTSESATPESGPGSEPATSGSETPGTSESATPESGPGSEPATSGSETPGTSESATPESGPGTSTEPSEGSAPGTSESATPESGPGSPAGSPTSTEEGSPAGSPTSTEEGSPAGSPTSTEEGTSESATPESGPGTSTEPSEGSAPGTSESATPESGPGSEPATSGSETPGTSESATPESGPGSEPATSGSETPGTSESATPESGPGTSTEPSEGSAPGSPAGSPTSTEEGTSESATPESGPGSEPATSGSETPGTSESATPESGPGSPAGSPTSTEEGSPAGSPTSTEEGTSTEPSEGSAPGTSESATPESGPGTSESATPESGPGTSESATPESGPGSEPATSGSETPGSEPATSGSETPGSPAGSPTSTEEGTSTEPSEGSAPGTSTEPSEGSAPGSEPATSGSETPGTSESATPESGPGTSTEPSEGSAP
notes: Tested as cleared E. coli lysate, not purified; also called aCD40-XTEN; pBC0009
Broadly, the Kd is the constant that tells how readily two partners part at equilibrium. Turning to B2, in the assay with human CD40-Fc fusion, the dissociation constant Kd was approximately 50 nM.

B3: anti-CD40-AE864, AC385 (scFv)
scFv: MAEIVLTQSPATLSLSPGERATLSCRASQSISDYLHWYQQKPGQAPRLLIYYASHSISGIPARFSGSGSGTDFTLTISSLEPEDFAVYYCQHGHSYPWTFGGGTKVEIKTGSGEGSEGEGGGEGSEGEGSGEGGEGEGSGTQVQLVQSGSELKKPGASVKVSCKASGYAFTTTGMQWVRQAPGQGLEWMGWINTHSGVPKYVEDFKGRFVFSLDTSVSTAYLQISSLKAEDTAVYYCARSGNGNYDLAYFKYWGQGTLVTVSSGGSPAGSPTSTEEGTSESATPESGPGTSTEPSEGSAPGSPAGSPTSTEEGTSTEPSEGSAPGTSTEPSEGSAPGTSESATPESGPGSEPATSGSETPGSEPATSGSETPGSPAGSPTSTEEGTSESATPESGPGTSTEPSEGSAPGTSTEPSEGSAPGSPAGSPTSTEEGTSTEPSEGSAPGTSTEPSEGSAPGTSESATPESGPGTSTEPSEGSAPGTSESATPESGPGSEPATSGSETPGTSTEPSEGSAPGTSTEPSEGSAPGTSESATPESGPGTSESATPESGPGSPAGSPTSTEEGTSESATPESGPGSEPATSGSETPGTSESATPESGPGTSTEPSEGSAPGTSTEPSEGSAPGTSTEPSEGSAPGTSTEPSEGSAPGTSTEPSEGSAPGTSTEPSEGSAPGSPAGSPTSTEEGTSTEPSEGSAPGTSESATPESGPGSEPATSGSETPGTSESATPESGPGSEPATSGSETPGTSESATPESGPGTSTEPSEGSAPGTSESATPESGPGSPAGSPTSTEEGSPAGSPTSTEEGSPAGSPTSTEEGTSESATPESGPGTSTEPSEGSAPGTSESATPESGPGSEPATSGSETPGTSESATPESGPGSEPATSGSETPGTSESATPESGPGTSTEPSEGSAPGSPAGSPTSTEEGTSESATPESGPGSEPATSGSETPGTSESATPESGPGSPAGSPTSTEEGSPAGSPTSTEEGTSTEPSEGSAPGTSESATPESGPGTSESATPESGPGTSESATPESGPGSEPATSGSETPGSEPATSGSETPGSPAGSPTSTEEGTSTEPSEGSAPGTSTEPSEGSAPGSEPATSGSETPGTSESATPESGPGTSTEPSEGSAP
notes: Tested as cleared E. coli lysate, not purified; also called aCD40-XTEN; pBC0010
For B3, in the assay with human CD40-Fc fusion, the dissociation constant Kd was approximately 50 nM.
